This assay has as its target KDR (VEGFR-2, Flk-1), full-length receptor on cells (human), P35968. Kind of assay: competition with 125I-VEGF on KDR-transfected 293H cells. Conditions: remark: other sources report otherwise.

Positions of bridges follow the written chain, without caps; N, C: chain ends. Groups on a side chain read outwards from the residue. *: point of attachment. Biotin = O=C1N[C@H]2[C@H](CS[C@H]2CCCCC(=O)*)N1; AEEA = NCCOCCOCC(=O)O

KDR (VEGFR-2, Flk-1), full-length receptor on cells (human), P35968, sequence (P35968 20-1356): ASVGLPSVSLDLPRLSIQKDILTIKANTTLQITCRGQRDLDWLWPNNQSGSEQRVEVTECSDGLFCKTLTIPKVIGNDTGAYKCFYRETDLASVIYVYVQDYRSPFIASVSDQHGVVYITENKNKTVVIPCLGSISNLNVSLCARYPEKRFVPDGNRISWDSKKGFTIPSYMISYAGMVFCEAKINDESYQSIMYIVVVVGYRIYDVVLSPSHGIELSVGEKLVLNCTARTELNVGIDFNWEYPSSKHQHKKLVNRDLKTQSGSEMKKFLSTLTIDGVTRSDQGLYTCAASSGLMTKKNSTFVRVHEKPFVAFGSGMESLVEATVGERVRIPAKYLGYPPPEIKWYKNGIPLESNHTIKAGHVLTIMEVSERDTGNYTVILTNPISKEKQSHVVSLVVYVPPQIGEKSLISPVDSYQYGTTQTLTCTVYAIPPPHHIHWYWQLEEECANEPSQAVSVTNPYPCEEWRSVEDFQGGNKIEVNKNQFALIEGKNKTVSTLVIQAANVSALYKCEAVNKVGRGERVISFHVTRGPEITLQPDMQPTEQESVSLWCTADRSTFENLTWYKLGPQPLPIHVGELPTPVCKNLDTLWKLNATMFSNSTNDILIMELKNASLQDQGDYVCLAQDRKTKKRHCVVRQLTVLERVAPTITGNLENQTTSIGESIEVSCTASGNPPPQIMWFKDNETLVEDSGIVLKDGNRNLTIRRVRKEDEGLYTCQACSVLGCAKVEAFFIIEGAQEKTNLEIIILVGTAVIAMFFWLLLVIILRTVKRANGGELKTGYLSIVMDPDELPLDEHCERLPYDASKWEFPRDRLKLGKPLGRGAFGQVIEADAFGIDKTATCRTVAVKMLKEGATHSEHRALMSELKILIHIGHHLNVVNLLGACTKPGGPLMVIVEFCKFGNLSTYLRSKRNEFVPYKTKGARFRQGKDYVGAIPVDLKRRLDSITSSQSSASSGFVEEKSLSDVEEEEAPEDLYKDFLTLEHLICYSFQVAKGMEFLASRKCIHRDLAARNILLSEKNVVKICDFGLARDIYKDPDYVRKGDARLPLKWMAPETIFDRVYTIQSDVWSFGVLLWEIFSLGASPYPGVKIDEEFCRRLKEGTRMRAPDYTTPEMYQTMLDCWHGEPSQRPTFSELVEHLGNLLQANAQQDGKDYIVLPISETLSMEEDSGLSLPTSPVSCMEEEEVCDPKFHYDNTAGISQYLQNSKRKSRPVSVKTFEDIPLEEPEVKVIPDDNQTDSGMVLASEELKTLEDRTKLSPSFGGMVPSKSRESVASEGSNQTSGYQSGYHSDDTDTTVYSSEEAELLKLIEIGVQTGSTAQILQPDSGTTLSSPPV

B1: P5-XB (peptide)
peptide: Ac-AGPKWCEEDWYYCMITGTGGGK([AEEA-AEEA-Biotin])-NH2
modifications: disulfide 6-13
SMILES: CC[C@H](C)[C@H](NC(=O)[C@H](CCSC)NC(=O)[C@@H]1CSSC[C@H](NC(=O)[C@H](Cc2c[nH]c3ccccc23)NC(=O)[C@H](CCCCN)NC(=O)[C@@H]2CCCN2C(=O)CNC(=O)[C@H](C)NC(C)=O)C(=O)N[C@@H](CCC(=O)O)C(=O)N[C@@H](CCC(=O)O)C(=O)N[C@@H](CC(=O)O)C(=O)N[C@@H](Cc2c[nH]c3ccccc23)C(=O)N[C@@H](Cc2ccc(O)cc2)C(=O)N[C@@H](Cc2ccc(O)cc2)C(=O)N1)C(=O)N[C@H](C(=O)NCC(=O)N[C@H](C(=O)NCC(=O)NCC(=O)NCC(=O)N[C@@H](CCCCNC(=O)COCCOCCNC(=O)COCCOCCNC(=O)CCCC[C@@H]1SC[C@@H]2NC(=O)N[C@@H]21)C(N)=O)[C@@H](C)O)[C@@H](C)O
As to B1, the % inhibition of 125I-VEGF binding at 0.3 µM was 24.4% and the % inhibition of 125I-VEGF binding at 30 µM was found to be 48%.
